system: Escherichia coli TOP10; assay: shrunken log2 fold change of peptide-encoding DNA abundance (4.5 h post-induction vs induction); higher = less antimicrobial activity (less host growth inhibition); settings: time post-induction: 4.5 h; library: site-saturation at positions 5, 18, 19, 20
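Further: peptides expressed intracellularly from a pBAD plasmid library in pooled LB shake-flask culture, induced with 0.3% L-arabinose, DNA abundance read by NGS, three biological replicates, DESeq2 with apeglm shrinkage.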

| Sequence | shrunken log2 fold change |
| --- | --- |
| RRIRCRPPRLPRPRPRPHILPRP | -0.476 |
| RRIRYRPPRLPRPRPRPAEFPRP | -0.266 |
| RRIRGRPPRLPRPRPRPSHRPRP | -0.0458 |
| RRIRGRPPRLPRPRPRPQDAPRP | 0.832 |
| RRIRRRPPRLPRPRPRPLYPPRP | -0.0452 |
| RRIRHRPPRLPRPRPRPCSYPRP | -0.0203 |
| RRIRKRPPRLPRPRPRPLYCPRP | -0.237 |
| RRIRVRPPRLPRPRPRPHFFPRP | -0.0497 |
| RRIRMRPPRLPRPRPRPRLNPRP | 0.305 |
| RRIRGRPPRLPRPRPRPDTKPRP | 0.239 |
| RRIRARPPRLPRPRPRPWVTPRP | -0.127 |
| RRIRERPPRLPRPRPRPANTPRP | 1.45 |
| RRIRVRPPRLPRPRPRPWPPPRP | 0.46 |
| RRIRSRPPRLPRPRPRPMCYPRP | -0.0971 |
| RRIRHRPPRLPRPRPRPNIRPRP | 0.0598 |
| RRIRCRPPRLPRPRPRPWTTPRP | -0.138 |
| RRIRTRPPRLPRPRPRPHKTPRP | -0.035 |
| RRIRWRPPRLPRPRPRPFLIPRP | -0.488 |
| RRIRERPPRLPRPRPRPSKIPRP | -0.506 |
| RRIRDRPPRLPRPRPRPPTRPRP | 0.596 |
| RRIRCRPPRLPRPRPRPACRPRP | 0.128 |
| RRIRMRPPRLPRPRPRPLACPRP | 0.244 |
| RRIRKRPPRLPRPRPRPEYSPRP | 0.0499 |
| RRIRPRPPRLPRPRPRPKIWPRP | 0.407 |
| RRIRMRPPRLPRPRPRPTINPRP | -0.109 |

| Sequence | shrunken log2 fold change |
| --- | --- |
| RRIRQRPPRLPRPRPRPWYTPRP | -0.132 |
| RRIRARPPRLPRPRPRPYFIPRP | -0.73 |
| RRIRFRPPRLPRPRPRPLHHPRP | -0.434 |
| RRIRARPPRLPRPRPRPIAHPRP | 0.13 |
| RRIRRRPPRLPRPRPRPESQPRP | 0.303 |
| RRIRTRPPRLPRPRPRPNPGPRP | -0.0312 |
| RRIRIRPPRLPRPRPRPLCVPRP | -0.551 |
| RRIRQRPPRLPRPRPRPGKFPRP | -0.148 |
| RRIRTRPPRLPRPRPRPDSWPRP | -0.595 |
| RRIRTRPPRLPRPRPRPYQYPRP | -0.546 |
| RRIRMRPPRLPRPRPRPMRKPRP | 0.361 |
| RRIRKRPPRLPRPRPRPHLNPRP | 0.14 |
| RRIRKRPPRLPRPRPRPHTAPRP | 0.239 |
| RRIRMRPPRLPRPRPRPGLNPRP | 0.223 |
| RRIRFRPPRLPRPRPRPYYGPRP | -0.0202 |
| RRIRGRPPRLPRPRPRPNQHPRP | 0.189 |
| RRIRRRPPRLPRPRPRPQHFPRP | 0.256 |
| RRIRKRPPRLPRPRPRPCAAPRP | 0.421 |
| RRIRIRPPRLPRPRPRPMWFPRP | -0.0453 |
| RRIRMRPPRLPRPRPRPSDKPRP | 0.0839 |
| RRIRYRPPRLPRPRPRPLGPPRP | 0.157 |
| RRIRSRPPRLPRPRPRPHRVPRP | 0.0316 |
| RRIRARPPRLPRPRPRPEREPRP | 1.05 |
| RRIRYRPPRLPRPRPRPIKFPRP | -0.244 |
| RRIRSRPPRLPRPRPRPWVEPRP | -0.214 |

| Sequence | shrunken log2 fold change |
| --- | --- |
| RRIRARPPRLPRPRPRPKRWPRP | 0.586 |
| RRIRCRPPRLPRPRPRPFLLPRP | -0.569 |
| RRIRHRPPRLPRPRPRPGRRPRP | 0.525 |
| RRIRCRPPRLPRPRPRPPAFPRP | 0.504 |
| RRIRHRPPRLPRPRPRPYNSPRP | 0.0224 |
| RRIRGRPPRLPRPRPRPFSGPRP | -0.325 |
| RRIRPRPPRLPRPRPRPVVQPRP | 0.28 |
| RRIRNRPPRLPRPRPRPYSYPRP | 0.000362 |
| RRIRSRPPRLPRPRPRPYRIPRP | 0.123 |
| RRIRERPPRLPRPRPRPWMPPRP | -0.062 |
| RRIRERPPRLPRPRPRPVTYPRP | -0.17 |
| RRIRERPPRLPRPRPRPDDDPRP | 0.00371 |
| RRIRNRPPRLPRPRPRPCEHPRP | -0.162 |
| RRIRSRPPRLPRPRPRPLWWPRP | 0.35 |
| RRIRCRPPRLPRPRPRPIPEPRP | 0.00841 |
| RRIRGRPPRLPRPRPRPPMHPRP | 0.95 |
| RRIRHRPPRLPRPRPRPINGPRP | -0.437 |
| RRIRTRPPRLPRPRPRPARLPRP | 0.215 |
| RRIRYRPPRLPRPRPRPEELPRP | -0.0326 |
| RRIRIRPPRLPRPRPRPPWNPRP | -0.403 |
| RRIRNRPPRLPRPRPRPWFPPRP | -0.223 |
| RRIRARPPRLPRPRPRPQTCPRP | 0.246 |
| RRIRYRPPRLPRPRPRPCSNPRP | -0.00822 |
| RRIRARPPRLPRPRPRPCNAPRP | 0.0237 |
| RRIRTRPPRLPRPRPRPIHCPRP | -0.172 |

| Sequence | shrunken log2 fold change |
| --- | --- |
| RRIRQRPPRLPRPRPRPTHNPRP | 0.357 |
| RRIRKRPPRLPRPRPRPIGIPRP | -0.01 |
| RRIRWRPPRLPRPRPRPSWYPRP | -0.239 |
| RRIRPRPPRLPRPRPRPPHSPRP | 1.31 |
| RRIRGRPPRLPRPRPRPQELPRP | 0.27 |
| RRIRSRPPRLPRPRPRPALKPRP | 0.161 |
| RRIRSRPPRLPRPRPRPCGLPRP | 0.00512 |
| RRIRYRPPRLPRPRPRPSTHPRP | 0.396 |
| RRIRGRPPRLPRPRPRPWPKPRP | 0.199 |
| RRIRGRPPRLPRPRPRPDMHPRP | 0.512 |
| RRIRWRPPRLPRPRPRPAGHPRP | -0.0472 |
| RRIRHRPPRLPRPRPRPDWEPRP | -0.00783 |
| RRIRRRPPRLPRPRPRPRGCPRP | 0.984 |
| RRIRIRPPRLPRPRPRPVATPRP | -0.374 |
| RRIRNRPPRLPRPRPRPWYVPRP | -0.097 |
| RRIRVRPPRLPRPRPRPNEGPRP | -0.00311 |
| RRIRYRPPRLPRPRPRPALQPRP | -0.1 |
| RRIRNRPPRLPRPRPRPVALPRP | -0.0331 |
| RRIRQRPPRLPRPRPRPMRWPRP | 0.0431 |
| RRIRWRPPRLPRPRPRPSEGPRP | 0.0528 |
| RRIRLRPPRLPRPRPRPWLPPRP | -0.464 |
| RRIRDRPPRLPRPRPRPIRKPRP | 0.0201 |
| RRIRQRPPRLPRPRPRPGMVPRP | 0.0259 |
| RRIRLRPPRLPRPRPRPRMNPRP | 0.179 |
| RRIRARPPRLPRPRPRPGAQPRP | 0.92 |

| Sequence | shrunken log2 fold change |
| --- | --- |
| RRIRARPPRLPRPRPRPFIMPRP | -0.507 |
| RRIRCRPPRLPRPRPRPNWWPRP | 0.32 |
| RRIRCRPPRLPRPRPRPLGDPRP | 1.87 |
| RRIRQRPPRLPRPRPRPNFNPRP | -0.295 |
| RRIRDRPPRLPRPRPRPCMSPRP | -0.256 |
| RRIRSRPPRLPRPRPRPRPVPRP | 1.01 |
| RRIRFRPPRLPRPRPRPAEMPRP | 0.00299 |
| RRIRWRPPRLPRPRPRPQLSPRP | -0.211 |
| RRIRIRPPRLPRPRPRPYHIPRP | -0.0511 |
| RRIRMRPPRLPRPRPRPCMPPRP | -0.106 |
| RRIRQRPPRLPRPRPRPRDSPRP | 0.0142 |
| RRIRIRPPRLPRPRPRPTRVPRP | 0.167 |
| RRIRNRPPRLPRPRPRPCDLPRP | -0.0345 |
| RRIRMRPPRLPRPRPRPIAQPRP | 0.726 |
| RRIRKRPPRLPRPRPRPCDVPRP | 0.0144 |
| RRIRQRPPRLPRPRPRPAEHPRP | 0.166 |
| RRIRSRPPRLPRPRPRPCRHPRP | 0.063 |
| RRIRARPPRLPRPRPRPYNEPRP | -0.524 |
| RRIRWRPPRLPRPRPRPDFMPRP | -0.015 |
| RRIRNRPPRLPRPRPRPQQRPRP | -0.0535 |
| RRIRIRPPRLPRPRPRPAARPRP | 0.278 |
| RRIRRRPPRLPRPRPRPVIRPRP | 0.1 |
| RRIRGRPPRLPRPRPRPQEKPRP | 0.0562 |
| RRIRIRPPRLPRPRPRPKGYPRP | -0.0143 |
| RRIRERPPRLPRPRPRPPKDPRP | 0.00712 |

| Sequence | shrunken log2 fold change |
| --- | --- |
| RRIRPRPPRLPRPRPRPFVFPRP | -0.2 |
| RRIRQRPPRLPRPRPRPFMLPRP | -0.278 |
| RRIRMRPPRLPRPRPRPMQQPRP | 1.38 |
| RRIRFRPPRLPRPRPRPDIDPRP | 0.0707 |
| RRIRKRPPRLPRPRPRPYTMPRP | -0.53 |
| RRIRTRPPRLPRPRPRPDQNPRP | 0.0691 |
| RRIRYRPPRLPRPRPRPRYSPRP | -1.43 |
| RRIRWRPPRLPRPRPRPWHWPRP | -0.101 |
| RRIRCRPPRLPRPRPRPPKSPRP | 0.772 |
| RRIRTRPPRLPRPRPRPPLKPRP | -0.0323 |
| RRIRLRPPRLPRPRPRPIMVPRP | -0.117 |
| RRIRDRPPRLPRPRPRPLRCPRP | 0.177 |
| RRIRERPPRLPRPRPRPYMHPRP | -0.232 |
| RRIRARPPRLPRPRPRPPGMPRP | 0.471 |
| RRIRARPPRLPRPRPRPEWAPRP | 1.06 |
| RRIRFRPPRLPRPRPRPGAPPRP | 0.54 |
| RRIRERPPRLPRPRPRPQRAPRP | 0.254 |
| RRIRCRPPRLPRPRPRPCKHPRP | -0.339 |
| RRIRFRPPRLPRPRPRPRLWPRP | 0.497 |
| RRIRHRPPRLPRPRPRPTVFPRP | -0.251 |
| RRIRPRPPRLPRPRPRPGGFPRP | 0.318 |
| RRIRTRPPRLPRPRPRPSTIPRP | -0.386 |
| RRIRVRPPRLPRPRPRPTNFPRP | -0.287 |
| RRIRLRPPRLPRPRPRPAIFPRP | -0.391 |
| RRIRWRPPRLPRPRPRPWEWPRP | -0.00895 |

Reference: the supplement of paper PMC9112550, “Optimization of the antimicrobial peptide Bac7 by deep mutational scanning” (BMC Biology, 2022)
